The values below come from publication PMC11497405.

Common to all, as to test: SEC; size exclusion chromatography coupled online to ICP-sfMS (HPLC-ICP-MS) with diode array detection, metal-free HPLC system; apparent MW from a calibration curve; purified MTs with their bound metals
Assay [1] concerns the target native (non-tagged) Brassica napus metallothionein BnMT3b (Brassica napus).
For assay [2], the target named is native (non-tagged) Brassica napus metallothionein BnMT3a (Brassica napus).
The target of assay [3] is native (non-tagged) Brassica napus metallothionein BnMT2 (Brassica napus).

“native (non-tagged) Brassica napus metallothionein BnMT3b (natural protein)”: the stoichiometry N in assay [1] was 2.
Turning to “native (non-tagged) Brassica napus metallothionein BnMT3a (natural protein)”, in assay [2], the stoichiometry N worked out at 2.
For “native (non-tagged) Brassica napus metallothionein BnMT2 (natural protein)”, the stoichiometry N in assay [3] was 2.
